Measured values: patent US20180037644A1 (Pfizer, published 2018)

T1: wild-type cynomolgus monkey IL-33 (cynomolgus monkey)
T1 construct: Used reduced (DTT-treated); His6 in the entry; also called cyno IL-33 (WT + DTT); pfe cyno WT IL-33
T1 chain: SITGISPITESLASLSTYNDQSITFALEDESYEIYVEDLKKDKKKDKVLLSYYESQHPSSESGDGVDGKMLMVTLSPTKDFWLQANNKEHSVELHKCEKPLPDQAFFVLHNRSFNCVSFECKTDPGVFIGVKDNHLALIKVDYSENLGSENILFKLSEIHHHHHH

T2: human IL-33 (mm2) (human, UniProt O95760 112-270)
T2 construct: Variant in which all four cysteine residues are serine; the entry carries an N-terminal Met and a C-terminal His6; Biotinylated in some assays; also called hIL-33 (mm2); huIL-33 (mm2)
T2 chain: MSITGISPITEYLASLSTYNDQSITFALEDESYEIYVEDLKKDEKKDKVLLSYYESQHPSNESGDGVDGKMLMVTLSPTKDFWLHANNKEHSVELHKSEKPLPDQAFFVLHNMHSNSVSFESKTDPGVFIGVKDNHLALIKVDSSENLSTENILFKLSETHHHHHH

T3: human IL-33 WT, reduced with DTT (human, UniProt O95760 112-270)
T3 construct: Wild-type cysteines, FLAG tag in the entry; reduced with 3 mM DTT before use; also called huIL33 wt; hu IL-33 (WT + DTT)
T3 sequence: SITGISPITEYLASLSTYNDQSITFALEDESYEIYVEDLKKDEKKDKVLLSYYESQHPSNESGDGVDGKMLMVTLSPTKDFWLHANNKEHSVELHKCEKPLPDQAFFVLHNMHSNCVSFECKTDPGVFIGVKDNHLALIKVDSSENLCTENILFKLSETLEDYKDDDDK

T4: cynomolgus monkey IL-33 (cys mut) (cynomolgus monkey)
T4 construct: Variant in which the three cysteine residues are serine; N-terminal Met and C-terminal His6 in the entry; also called cyno IL-33; cyno IL-33 (cys mut)
T4 chain: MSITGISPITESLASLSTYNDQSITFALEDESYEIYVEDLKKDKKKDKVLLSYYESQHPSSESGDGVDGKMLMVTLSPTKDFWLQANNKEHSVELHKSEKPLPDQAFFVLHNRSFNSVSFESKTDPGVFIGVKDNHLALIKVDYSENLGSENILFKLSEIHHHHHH

T5: IL-1α (UniProt P01583 113-271)
T5 sequence (looked up): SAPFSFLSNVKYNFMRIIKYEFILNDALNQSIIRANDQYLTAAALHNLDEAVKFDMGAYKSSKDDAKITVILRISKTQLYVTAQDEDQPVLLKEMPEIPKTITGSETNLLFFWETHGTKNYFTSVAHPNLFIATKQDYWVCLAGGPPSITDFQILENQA

T6: IL-18 (UniProt Q14116 37-193)
T6 sequence (looked up): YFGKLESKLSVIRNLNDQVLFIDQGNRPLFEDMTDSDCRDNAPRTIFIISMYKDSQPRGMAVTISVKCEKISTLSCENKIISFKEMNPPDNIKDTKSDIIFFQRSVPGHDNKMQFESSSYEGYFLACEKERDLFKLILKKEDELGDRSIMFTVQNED

T7: IL-36α (UniProt Q9UHA7 6-158)
T7 sequence (looked up): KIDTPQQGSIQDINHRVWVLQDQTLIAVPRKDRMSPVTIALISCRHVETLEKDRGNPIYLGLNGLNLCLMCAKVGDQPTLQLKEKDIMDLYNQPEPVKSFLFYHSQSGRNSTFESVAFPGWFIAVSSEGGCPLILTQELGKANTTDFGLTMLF

T8: IL-36γ (UniProt Q9NZH8 18-169)
T8 sequence (looked up): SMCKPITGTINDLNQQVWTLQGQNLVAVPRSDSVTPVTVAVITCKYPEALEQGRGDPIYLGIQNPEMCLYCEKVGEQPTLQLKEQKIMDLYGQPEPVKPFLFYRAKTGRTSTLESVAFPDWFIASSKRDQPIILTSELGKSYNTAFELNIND


Key:
[1] = target: T1, wild-type cynomolgus monkey IL-33; assay: SPR, Experiment 1; reference: human IL-33 (WT + DTT)
Experimental: (§1) Biacore kinetic assays were conducted at 37° C. at a collection rate of 1 Hz on a Biacore T200 instrument (GE Healthcare). Reduced and non-reduced wild-type human IL-33 and reduced wild-type cynomolgus monkey IL-33 were covalently coupled to a CM5 sensor chip (catalogue number BR100530, GE Healthcare) using an amine coupling kit (catalogue number BR100050, GE Healthcare) according to the manufacturer's protocol. Flow cell 1 was activated and blocked for use as a reference flow cell. […] The dilution and running buffer was HBS-EP+(10 mM HEPES pH 7.4, 0.15M NaCl, 3 mM EDTA, 0.05% P-20). Rate constants and affinities were determined by fitting the resulting sensorgram data to a 1:1 model in Biacore T200 Evaluation software version 1.0 (GE Healthcare). […] Kinetic properties of the bivalent IgG cannot be directly compared to those of monovalent Fab fragments and are not presented here.

[2] = target: T1, wild-type cynomolgus monkey IL-33; assay: SPR, Experiment 2; reference: human IL-33 (WT + DTT)
Experimental: as §1

[3] = target: T2, human IL-33 (mm2); assay: SPR, IL-33 amine-coupled to CM5, Fab in solution, 37 C
Experimental: (§2) Biacore kinetic assays were conducted at 37° C. at a collection rate of 1 Hz on a Biacore T200 instrument (GE Healthcare). Human IL33 (mm2), cynomolgus monkey IL-33, and reduced huIL33 wt were covalently coupled to a CM5 sensor chip (catalogue number BR100530, GE Healthcare) using an amine coupling kit (catalogue number BR100050, GE Healthcare) according to the manufacturer's protocol. […] The dilution and running buffer was HBS-EP+(10 mM HEPES pH 7.4, 0.15M NaCl, 3 mM EDTA, 0.05% P-20). Rate constants and affinities were determined by fitting the resulting sensorgram data to a 1:1 model in Biacore T200 Evaluation software version 1.0 (GE Healthcare).

[4] = target: T3, human IL-33 WT, reduced with DTT; assay: as above
Experimental: as §2

[5] = target: T4, cynomolgus monkey IL-33 (cys mut); assay: as above
Experimental: as §2

[6] = target: T3, human IL-33 WT, reduced with DTT; assay: SPR, IL-33 amine-coupled to CM5, Fab in solution, 37 C, Experiment 1
Experimental: as §1

[7] = target: T1, wild-type cynomolgus monkey IL-33; assay: as above
Experimental: as §1

[8] = target: T3, human IL-33 WT, reduced with DTT; assay: SPR, IL-33 amine-coupled to CM5, Fab in solution, 37 C, Experiment 2
Experimental: as §1

[9] = target: T1, wild-type cynomolgus monkey IL-33; assay: as above
Experimental: as §1

[10] = target: T5, IL-1α; assay: SPR (Biacore T200), Fab captured on the chip, cytokine injected
Source text: (§3) The panel of cytokines included IL-1α, IL-1β, IL-18, IL-36α, and IL-36γ.

[11] = target: IL-1β (UniProt P01584 117-269); assay: as above
Source text: as §3

[12] = target: T6, IL-18; assay: as above
Source text: as §3

[13] = target: T7, IL-36α; assay: as above
Source text: as §3

[14] = target: T8, IL-36γ; assay: as above
Source text: as §3

| Ratio of cynomolgus monkey KD/human KD [1] | Ratio of cynomolgus monkey KD/human KD [2] | Kd [3] | koff [3] | kon [3] | Kd [4] | koff [4] | kon [4] | Kd [5] | koff [5] | kon [5] | Kd [6] | koff [6] | kon [6] | Kd [7] | koff [7] | kon [7] | Kd [8] | koff [8] | kon [8] | Binder | further results |
| --- | --- | --- | --- | --- | --- | --- | --- | --- | --- | --- | --- | --- | --- | --- | --- | --- | --- | --- | --- | --- | --- |
| 1.3 | 2.3 | 0.013 nM | 3.09e-05 s⁻¹ | 2.42e+06 M⁻¹ s⁻¹ | 0.0696 nM | 0.000129 s⁻¹ | 1.86e+06 M⁻¹ s⁻¹ | 0.0104 nM | 1.71e-05 s⁻¹ | 1.64e+06 M⁻¹ s⁻¹ | 0.106 nM | 0.00033 s⁻¹ | 3.13e+06 M⁻¹ s⁻¹ | 0.139 nM | 0.00062 s⁻¹ | 4.5e+06 M⁻¹ s⁻¹ | 0.101 nM | 0.000417 s⁻¹ | 4.11e+06 M⁻¹ s⁻¹ | IL33-158LS Fab (Fab, V domains shown) VH: EVQLVESGGGLVQPGGSLRLSCAASGFTFSSYWMYWVRQAPGKGLEWVAAITPNAGEDYYPESVKGRFTISRDNAKNSLYLQMNSLRAEDTAVYYCARGHYYYTSYSLGYWGQGTLVTVSS VL: DIQMTQSPSSLSASVGDRVTITCKASQNINKHLDWYQQKPGKAPKLLIYFTNNLQTGVPSRFSGSGSGTDFTLTISSLQPEDFATYYCFQYNQGWTFGGGTKVEIKR | Kd [9]: 0.228 nM; koff [9]: 0.00121 s⁻¹; kon [9]: 5.32e+06 M⁻¹ s⁻¹; binding result [10]: no binding; binding result [11]: no binding; binding result [12]: no binding; binding result [13]: no binding; binding result [14]: no binding |
| 1.5 | 2.5 | 0.0101 nM | 4.8e-05 s⁻¹ | 4.75e+06 M⁻¹ s⁻¹ | 0.0452 nM | 6.56e-05 s⁻¹ | 1.45e+06 M⁻¹ s⁻¹ | 0.0134 nM | 2.09e-05 s⁻¹ | 1.57e+06 M⁻¹ s⁻¹ | 0.091 nM | 0.000276 s⁻¹ | 3.03e+06 M⁻¹ s⁻¹ | 0.139 nM | 0.000665 s⁻¹ | 4.81e+06 M⁻¹ s⁻¹ | 0.089 nM | 0.00035 s⁻¹ | 3.96e+06 M⁻¹ s⁻¹ | IL33-167LS Fab (Fab, V domains shown) VH: EVQLVESGGGLVQPGGSLRLSCAASGFTFSSYWMYWVRQAPGKGLEWVASITPNAGEDYYPDSVKGRFTISRDNAKNSLYLQMNSLRAEDTAVYYCARGHYYYTSYSLGYWGQGTLVTVSS VL: DIQMTQSPSSLSASVGDRVTITCKASQNINKHLDWYQQKPGKAPKLLIYFTNNLQTGVPSRFSGSGSGTDFTLTISSLQPEDFATYYCFQYNNGWTFGGGTKVEIKR | Kd [9]: 0.218 nM; koff [9]: 0.00119 s⁻¹; kon [9]: 5.5e+06 M⁻¹ s⁻¹ |
